Data published in patent US20260242735A1.

What was measured:
Assay in all cases: alanine scan, flow cytometry, HEK293-T
[1] = molecular target: human CD33 S54A (human) (UniProt P20138)
[2] = molecular target: human CD33 G58A (human) (UniProt P20138)
[3] = molecular target: human CD33 G156A (human) (UniProt P20138)
[4] = molecular target: human CD33 D112A (human) (UniProt P20138)
[5] = molecular target: human CD33 D51A (human) (UniProt P20138)
[6] = molecular target: human CD33 E121A (human) (UniProt P20138)
[7] = molecular target: human CD33 P150A (human) (UniProt P20138)
[8] = molecular target: human CD33 R144A (human) (UniProt P20138)
[9] = molecular target: human CD33 W179A (human) (UniProt P20138)
[10] = molecular target: human CD33 I147A (human) (UniProt P20138)
[11] = molecular target: human CD33 P175A (human) (UniProt P20138)
[12] = molecular target: human CD33 T162A (human) (UniProt P20138)
[13] = molecular target: human CD33 K130A (human) (UniProt P20138)
[14] = molecular target: human CD33 N100A (human) (UniProt P20138)
[15] = molecular target: human CD33 G188A (human) (UniProt P20138)
[16] = molecular target: human CD33 D95A (human) (UniProt P20138)
[17] = molecular target: human CD33 V82A (human) (UniProt P20138)
[18] = molecular target: human CD33 Q133A (human) (UniProt P20138)
[19] = molecular target: human CD33 S68A (human) (UniProt P20138)
[20] = molecular target: human CD33 E84A (human) (UniProt P20138)
[21] = molecular target: human CD33 W60A (human) (UniProt P20138)
[22] = molecular target: human CD33 I66A (human) (UniProt P20138)
[23] = molecular target: human CD33 L180A (human) (UniProt P20138)
[24] = molecular target: human CD33 A74S (human) (UniProt P20138)
[25] = molecular target: human CD33 N76A (human) (UniProt P20138)
[26] = molecular target: human CD33 S186A (human) (UniProt P20138)
[27] = molecular target: human CD33 P48A (human) (UniProt P20138)
[28] = molecular target: human CD33 H137A (human) (UniProt P20138)
[29] = molecular target: human CD33 K146A (human) (UniProt P20138)
[30] = molecular target: human CD33 N113A (human) (UniProt P20138)
[31] = molecular target: human CD33 L103A (human) (UniProt P20138)
[32] = molecular target: human CD33 Q87A (human) (UniProt P20138)
[33] = molecular target: human CD33 H193A (human) (UniProt P20138)
[34] = molecular target: human CD33 A182S (human) (UniProt P20138)
[35] = molecular target: human CD33 P55A (human) (UniProt P20138)
[36] = molecular target: human CD33 T75A (human) (UniProt P20138)
[37] = molecular target: human CD33 P96A (human) (UniProt P20138)
[38] = molecular target: human CD33 V56A (human) (UniProt P20138)
[39] = molecular target: human CD33 V106A (human) (UniProt P20138)
[40] = molecular target: human CD33 T139A (human) (UniProt P20138)
[41] = molecular target: human CD33 L187A (human) (UniProt P20138)
[42] = molecular target: human CD33 Y116A (human) (UniProt P20138)
[43] = molecular target: human CD33 F177A (human) (UniProt P20138)
[44] = molecular target: human CD33 A183S (human) (UniProt P20138)
[45] = molecular target: human CD33 T125A (human) (UniProt P20138)
Sequence of human CD33 T125A (human) (P20138 18-364 T125A limits assumed): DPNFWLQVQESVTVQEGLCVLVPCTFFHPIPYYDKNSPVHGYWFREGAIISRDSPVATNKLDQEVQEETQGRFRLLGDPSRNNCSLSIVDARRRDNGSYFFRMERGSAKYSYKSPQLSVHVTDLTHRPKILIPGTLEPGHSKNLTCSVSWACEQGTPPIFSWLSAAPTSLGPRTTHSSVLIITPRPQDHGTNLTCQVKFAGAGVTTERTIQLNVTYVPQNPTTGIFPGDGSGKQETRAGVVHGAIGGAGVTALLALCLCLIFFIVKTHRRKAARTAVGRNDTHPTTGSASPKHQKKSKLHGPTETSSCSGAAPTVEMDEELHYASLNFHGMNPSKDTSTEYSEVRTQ

Sequence of human CD33 H137A (human) (P20138 18-364 H137A limits assumed): as the sequence (P20138 18-364 T125A limits assumed) above, with A108T, H120A counted along it
Sequence of human CD33 Q87A (human) (P20138 18-364 Q87A limits assumed): as the sequence (P20138 18-364 T125A limits assumed) above, with Q70A, A108T counted along it
Sequence of human CD33 T162A (human) (P20138 18-364 T162A limits assumed): as the sequence (P20138 18-364 T125A limits assumed) above, with A108T, T145A counted along it
Sequence of human CD33 V56A (human) (P20138 18-364 V56A limits assumed): as the sequence (P20138 18-364 T125A limits assumed) above, with V39A, A108T counted along it
Sequence of human CD33 E84A (human) (P20138 18-364 E84A limits assumed): as the sequence (P20138 18-364 T125A limits assumed) above, with E67A, A108T counted along it
Sequence of human CD33 G58A (human) (P20138 18-364 G58A limits assumed): as the sequence (P20138 18-364 T125A limits assumed) above, with G41A, A108T counted along it
Sequence of human CD33 L180A (human) (P20138 18-364 L180A limits assumed): as the sequence (P20138 18-364 T125A limits assumed) above, with A108T, L163A counted along it
Sequence of human CD33 S186A (human) (P20138 18-364 S186A limits assumed): as the sequence (P20138 18-364 T125A limits assumed) above, with A108T, S169A counted along it
Sequence of human CD33 L103A (human) (P20138 18-364 L103A limits assumed): as the sequence (P20138 18-364 T125A limits assumed) above, with L86A, A108T counted along it
Sequence of human CD33 V82A (human) (P20138 18-364 V82A limits assumed): as the sequence (P20138 18-364 T125A limits assumed) above, with V65A, A108T counted along it
Sequence of human CD33 L187A (human) (P20138 18-364 L187A limits assumed): as the sequence (P20138 18-364 T125A limits assumed) above, with A108T, L170A counted along it
Sequence of human CD33 Y116A (human) (P20138 18-364 Y116A limits assumed): as the sequence (P20138 18-364 T125A limits assumed) above, with Y99A, A108T counted along it
Sequence of human CD33 G156A (human) (P20138 18-364 G156A limits assumed): as the sequence (P20138 18-364 T125A limits assumed) above, with A108T, G139A counted along it

Substance: Refmab #7 (WM53) (antibody)
- Mean % WT Binding [1]: 100 % WT binding
- Mean % WT Binding [2]: 97.2 % WT binding
- Mean % WT Binding [3]: 112 % WT binding
- Mean % WT Binding [4]: 47.9 % WT binding
- Mean % WT Binding [5]: 9.2 % WT binding
- Mean % WT Binding [6]: 94.4 % WT binding
- Mean % WT Binding [7]: 115 % WT binding
- Mean % WT Binding [8]: 120 % WT binding
- Mean % WT Binding [9]: 111 % WT binding
- Mean % WT Binding [10]: 92 % WT binding
- Mean % WT Binding [11]: 126 % WT binding
- Mean % WT Binding [12]: 103 % WT binding
- Mean % WT Binding [13]: 148 % WT binding
- Mean % WT Binding [14]: 128 % WT binding
- Mean % WT Binding [15]: 127 % WT binding
- Mean % WT Binding [16]: 104 % WT binding
- Mean % WT Binding [17]: 108 % WT binding
- Mean % WT Binding [18]: 100 % WT binding
- Mean % WT Binding [19]: 120 % WT binding
- Mean % WT Binding [20]: 109 % WT binding
- Mean % WT Binding [21]: 2.1 % WT binding
- Mean % WT Binding [22]: 117 % WT binding
- Mean % WT Binding [23]: 105 % WT binding
- Mean % WT Binding [24]: 118 % WT binding
- Mean % WT Binding [25]: 93.9 % WT binding
- Mean % WT Binding [26]: 93.4 % WT binding
- Mean % WT Binding [27]: 42.5 % WT binding
- Mean % WT Binding [28]: 114 % WT binding
- Mean % WT Binding [29]: 91.1 % WT binding
- Mean % WT Binding [30]: 80 % WT binding
- Mean % WT Binding [31]: 109 % WT binding
- Mean % WT Binding [32]: 90.1 % WT binding
- Mean % WT Binding [33]: 107 % WT binding
- Mean % WT Binding [34]: 114 % WT binding
- Mean % WT Binding [35]: 94.7 % WT binding
- Mean % WT Binding [36]: 115 % WT binding
- Mean % WT Binding [37]: 98.7 % WT binding
- Mean % WT Binding [38]: 117 % WT binding
- Mean % WT Binding [39]: 126 % WT binding
- Mean % WT Binding [40]: 121 % WT binding
- Mean % WT Binding [41]: 124 % WT binding
- Mean % WT Binding [42]: 1.7 % WT binding
- Mean % WT Binding [43]: 74.1 % WT binding
- Mean % WT Binding [44]: 102 % WT binding
- Mean % WT Binding [45]: 91.3 % WT binding
